Data set [1] addresses Purified SAS-5 C-terminus (C. elegans) (UniProt Q20010). Description: SEC-MALS. In general terms: In gel filtration, larger molecules generally elute earlier.
Data set [2] deals with T1, Full-length SAS-5, purified, on beads (C. elegans, UniProt Q20010 1-404).
T1 sequence (looked up): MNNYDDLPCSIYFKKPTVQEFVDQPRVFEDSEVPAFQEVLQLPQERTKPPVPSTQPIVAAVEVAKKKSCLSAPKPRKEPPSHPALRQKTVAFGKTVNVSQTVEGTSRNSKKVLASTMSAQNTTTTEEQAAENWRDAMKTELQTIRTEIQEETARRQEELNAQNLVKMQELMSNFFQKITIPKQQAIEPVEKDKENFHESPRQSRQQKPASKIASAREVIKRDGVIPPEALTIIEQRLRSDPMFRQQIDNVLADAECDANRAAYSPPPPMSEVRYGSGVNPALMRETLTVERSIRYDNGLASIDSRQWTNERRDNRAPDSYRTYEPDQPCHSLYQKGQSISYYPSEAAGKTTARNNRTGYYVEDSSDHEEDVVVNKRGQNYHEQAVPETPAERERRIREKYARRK
Description: pull-down.

The data set “SEC” concerns the molecule itself. As to the kind of experiment: SEC.

Usually stoichiometry N stands for a count of units in the complex or per binding partner. In data set [1], “Purified SAS-5 C-terminus (from UniProt Q20010 1-404) (domain or fragment)” gave a stoichiometry N of 2.

B1: Full-length WT SAS-6, purified (natural protein, C. elegans, UniProt O62479 1-492, looked up)
chain: MTSKIALFDQTLIASLLQPLSLNQPDFKAYKTKVKLKISEQRNETSGEKELKFEISRSDDFEFLFSETLNNEKYQILARDHDLTVDFDAFPKVIIQHLLCKNIVKNLEEDGEVDARKKAGYHSIADPGKPTEINIILDAEKNFCSFELFSKTPISKGKIFSIKLHAVRGDHLISHLLKICSSQAVKLSTFYKSADELASLRQKCGDLEKQVEKLSGVKEEFEEMSEKFKELEDEVELVKEERENIRLLVEDKEDEVADLKQDTESLQKQLEENQEELEIVGNMLREEQGKVDQLQKRNVAHQKEIGKLRAELGTAQRNLEKADQLLKRNSQQQNQQSLDMRKLGELEADLKEKDSMVESLTETIGILRKELENEKLKAAENMDSFEKLSMENENLKEKIAHYRAQRFSPAPSGLPGLQTGLTNRLTPSFKPVLGPHTPYGANLNSRTPFRDNTTLNFQNSTIATPHAFRFNSQLIADETTGSSVTNTPPAQR
Turning to B1, the “stoichiometry N” value in data set [2] is 2 SAS-6:SAS-5.

B2: WT SAS-6^1-389, purified (domain or fragment, C. elegans, UniProt O62479 1-389, looked up)
chain: MTSKIALFDQTLIASLLQPLSLNQPDFKAYKTKVKLKISEQRNETSGEKELKFEISRSDDFEFLFSETLNNEKYQILARDHDLTVDFDAFPKVIIQHLLCKNIVKNLEEDGEVDARKKAGYHSIADPGKPTEINIILDAEKNFCSFELFSKTPISKGKIFSIKLHAVRGDHLISHLLKICSSQAVKLSTFYKSADELASLRQKCGDLEKQVEKLSGVKEEFEEMSEKFKELEDEVELVKEERENIRLLVEDKEDEVADLKQDTESLQKQLEENQEELEIVGNMLREEQGKVDQLQKRNVAHQKEIGKLRAELGTAQRNLEKADQLLKRNSQQQNQQSLDMRKLGELEADLKEKDSMVESLTETIGILRKELENEKLKAAENMDSFEKLS
B2: the binding result in the data set “SEC” is reported as “binds”.
